The values that follow come from patent publication US20140329289, “ANTI-FH APTAMERS, METHOD FOR PRODUCING SAME, AND USES THEREOF” (Laboratoire Francais du Fractionnement et des …, published 2014).

Where a chain is given by its changes, count along the chain named.

For data set [1], the target named is T1, Factor H (complement factor H), plasma (Homo sapiens, UniProt P08603 P08603:19-1231). The experiment in a line: SPR; binding stability; 10 mM MgCl2, pH 7.5. To be noted: tags: LFB preparation (Biacore, amine-coupled NHS/EDC on CM5 chip, 5813 RU); Calbiochem 341274 also used in SELEX.
T1 sequence (P08603 19-1231, one chain of several): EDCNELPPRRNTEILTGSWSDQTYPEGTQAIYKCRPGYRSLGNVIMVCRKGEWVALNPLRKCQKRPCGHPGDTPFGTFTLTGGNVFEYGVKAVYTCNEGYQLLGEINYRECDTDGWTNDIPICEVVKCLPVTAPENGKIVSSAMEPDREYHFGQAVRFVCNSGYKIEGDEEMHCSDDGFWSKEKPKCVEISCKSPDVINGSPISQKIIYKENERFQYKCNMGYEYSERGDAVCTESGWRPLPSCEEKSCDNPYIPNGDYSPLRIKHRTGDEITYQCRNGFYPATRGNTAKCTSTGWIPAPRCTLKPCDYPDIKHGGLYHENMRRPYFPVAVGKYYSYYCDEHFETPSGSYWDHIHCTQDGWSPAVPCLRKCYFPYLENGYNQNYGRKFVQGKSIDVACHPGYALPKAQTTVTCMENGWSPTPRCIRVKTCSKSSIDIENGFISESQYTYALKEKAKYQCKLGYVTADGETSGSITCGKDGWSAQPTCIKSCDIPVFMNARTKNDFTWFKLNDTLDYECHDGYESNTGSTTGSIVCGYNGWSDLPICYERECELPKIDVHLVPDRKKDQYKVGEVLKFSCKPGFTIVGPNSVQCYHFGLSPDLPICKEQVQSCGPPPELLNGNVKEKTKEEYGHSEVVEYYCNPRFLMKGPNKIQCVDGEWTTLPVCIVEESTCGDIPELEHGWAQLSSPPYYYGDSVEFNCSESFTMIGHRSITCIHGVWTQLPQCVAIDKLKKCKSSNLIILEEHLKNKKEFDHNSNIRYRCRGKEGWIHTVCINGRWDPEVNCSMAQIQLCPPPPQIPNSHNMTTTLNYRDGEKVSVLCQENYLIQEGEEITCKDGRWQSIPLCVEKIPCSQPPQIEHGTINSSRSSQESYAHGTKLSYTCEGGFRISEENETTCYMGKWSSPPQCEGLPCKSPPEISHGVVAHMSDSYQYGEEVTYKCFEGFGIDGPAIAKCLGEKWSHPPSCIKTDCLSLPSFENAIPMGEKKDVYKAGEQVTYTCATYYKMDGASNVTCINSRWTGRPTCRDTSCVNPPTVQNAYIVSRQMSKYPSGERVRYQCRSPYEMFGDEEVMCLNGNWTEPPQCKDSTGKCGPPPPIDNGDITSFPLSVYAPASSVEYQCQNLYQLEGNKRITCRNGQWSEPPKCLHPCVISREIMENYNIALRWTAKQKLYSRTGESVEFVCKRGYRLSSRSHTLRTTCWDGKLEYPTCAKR
Data set [2] has as its target T1, Factor H (complement factor H), plasma. The experiment in a line: SPR; rank 2 of 5 truncations; 50 mM NaCl, 50 mM MgCl2, pH 7.5. To be noted: tags: LFB preparation (Biacore, amine-coupled NHS/EDC on CM5 chip, 5813 RU); Calbiochem 341274 also used in SELEX. On the technique in general: In SPR one partner is held on a chip, and binding of the other changes the refractive index at the surface.

The target is the same in data set [3]. In words: SPR; rank 4 of 5 truncations; 50 mM NaCl, 50 mM MgCl2, pH 7.5. The settings on record: tags: LFB preparation (Biacore, amine-coupled NHS/EDC on CM5 chip, 5813 RU); Calbiochem 341274 also used in SELEX.
For data set [4] the target is unchanged. The experiment in a line: pulldown; affinity chromatography on aptamer-agarose; 74% of A254 retained and eluted with EDTA; 50 mM MgCl2, 50 mM NaCl, pH 7.5. The settings on record: tags: LFB preparation (Biacore, amine-coupled NHS/EDC on CM5 chip, 5813 RU); Calbiochem 341274 also used in SELEX; label: biotin. On the procedure:
The plasma factor H is eluted with a 50 mM Tris+500 mM EDTA buffer at pH 8.0. The elution peak is collected according to the OD profile.

Data set [5] has the same target. The experiment in a line: SPR; strongest of the five truncations; 50 mM Tris, 50 mM NaCl, 50 mM MgCl2, pH 7.5; p444 calls the FH recombinant, methods say LFB FH. The settings on record: tags: LFB preparation (Biacore, amine-coupled NHS/EDC on CM5 chip, 5813 RU); Calbiochem 341274 also used in SELEX.
For data set [6] the target is unchanged. In words: SPR; rank 3 of 5 truncations; 50 mM NaCl, 50 mM MgCl2, pH 7.5. The settings on record: tags: LFB preparation (Biacore, amine-coupled NHS/EDC on CM5 chip, 5813 RU); Calbiochem 341274 also used in SELEX.

B1: FAM2-5 (ssDNA)
DNA: GGGTCAATGCCAGGTCTCCCGGTTACCAACTATGATAGTATGGTGTTTGTGGCATGATCGGCTCGCAAGCAGTC
With B1, in data set [1], the binding signal worked out at 22.2 RU.
In the case of GGGCACGGGTCAGGCGGTTATACGGTGCCCATTGTTCTTT (ssDNA) [MaptH1.1 N19-58], in data set [2], the binding result is on record as “binds”.

B2: FAM1-6 (ssDNA)
DNA: GGGTCAATGCCAGGTCTCGAGGAACGTGGGGTCAGGTGGTTATACGCAGGGTACCGGGATCGGCTCGCAAGCAGTC
B2: the binding signal in data set [1] was 30 RU.

B3: FAM2-2 (ssDNA)
DNA: GGGTCAATGCCAGGTCTCCCGGTTACTGCCGTAGTTGTCTTACGGTGGTGTTAGTGGCATCGGCTCGCAAGCAGTC
As to B3, in data set [1], the binding signal was 22.4 RU.
Take GGGCACGGGTCAGGCGGTTATACGGTGCCC (ssDNA) [MaptH1.1 N19-48]: in data set [3], the binding result is “binds”.

B4: FAM2-6 (ssDNA)
DNA: GGGTCAATGCCAGGTCTCCCGGTTACCATCGAGGACGTCGCTTGGTGTTTGTGGCATGATCGGCTCGCAAGCAGTC
For B4, in data set [1], the binding signal came to 22.1 RU.

B5: FAM2-4 (ssDNA)
DNA: GGGTCAATGCCAGGTCTCCCGGTTACCAGTTGGTGTTTGTGGCTTTGCACGTCTGCATATCGGCTCGCAAGCAGTC
Molecule B5 showed a binding signal in data set [1] of 27.6 RU.

B6: FAM2-3 (ssDNA)
DNA: GGGTCAATGCCAGGTCTCCCGGTTACCTCCATTGGTGGTGTTAGTGGCTTTGTAGGATATCGGCTCGCAAGCAGTC
B6 returned a binding signal in data set [1] of 18.2 RU.

B7: FAM1-12 (ssDNA)
DNA: GGGTCAATGCCAGGTCTCACCGGGTCAGGCGGTTATACGGGTGAGGGCAGGTACATACATCGGCTCGCAAGCAGTC
B7: the binding signal in data set [1] was determined as 18.2 RU.

B8: FAM1-13 (ssDNA)
DNA: B7 DNA with A44G
The molecule B8 displayed a binding signal in data set [1] of 30.6 RU.

B9: FAM4 (ssDNA)
DNA: GGGTCAATGCCAGGTCTCCAAAGGGGGGGGTTGGGGGACCGTCCGTTGTTGATCTCACATCGGCTCGCAAGCAGTC
B9 returned a binding signal in data set [1] of 25.9 RU.

B10: FAM2-1 (ssDNA)
DNA: GGGTCAATGCCAGGTCTCCCGGTTACCGCGCTAAGCTTGGCGATGGTGTTAGTGGCTGATCGGCTCGCAAGCAGTC
In data set [1], B10 displayed a binding signal of 29.6 RU.

B11: IND1 (ssDNA)
DNA: GGGTCAATGCCAGGTCTCGGTGGGAGGTGAGGTCGTTGGACGGTGGCAGGGGATTTTGATCGGCTCGCAAGCAGTC
For the molecule B11, the binding signal in data set [1] amounted to 20.1 RU.

B12: FAM1-11 (ssDNA)
DNA: GGGTCAATGCCAGGTCTCGGGGCAGGCGGTTATACGGAGAGCTTCTTACATGGGCCCTATCGGCTCGCAAGCAGTC
Take B12: the binding signal in data set [1] turned out to be 16.9 RU.

B13: MaptH1.1 (ssDNA)
DNA: GGGTCAATGCCAGGTCTCGGGCACGGGTCAGGCGGTTATACGGTGCCCATTGTTCTTTATCGGCTCGCAAGCAGTC
With B13, in data set [4], the binding result is reported as “binds”.
As to CAGGTCTCGGGCACGGGTCAGGCGGTTATACGGTGCCC (ssDNA) [MaptH1.1 N13-48 (MaptH1.1CSO)], in data set [5], the binding result was “binds”.

B14: FAM1-9 (ssDNA)
DNA: GGGTCAATGCCAGGTCTCGGGGTGCGAGGGTCTGGTGGTTATACGTCGTCACCTCTAGATCGGCTCGCAAGCAGTC
In data set [1], B14 displayed a binding signal of 57.8 RU.

B15: FAM1-7 (ssDNA)
DNA: GGGTCAATGCCAGGTCTCGGGGGGCCGGTTATACGGGTCAGGCGGTTATACGGTATTCATCGGCTCGCAAGCAGTC
In data set [1], B15 yielded a binding signal of 15.4 RU.

B16: FAM1-10 (ssDNA)
DNA: GGGTCAATGCCAGGTCTCTGGGGGAGGGAGGGTCTGGGGGTTATACGTCACTAGCAAAATCGGCTCGCAAGCAGTC
In data set [1], B16 gave a binding signal of 73.5 RU.

B17: FAM3 (ssDNA)
DNA: GGGTCAATGCCAGGTCTCTGAGGCGCAGATGTGGAGGCTTTTACAGGCGGTGCGGAACATCGGCTCGCAAGCAGTC
Consider B17, for which, in data set [1], the binding signal was 11.7 RU.

B18: FAM1-3 (ssDNA)
DNA: GGGTCAATGCCAGGTCTCGGACCGCGATGGAGAGGGGTCTGGTGGTTATACGCTATGCATCGGCTCGCAAGCAGTC
B18: the binding signal in data set [1] amounted to 20.9 RU.

B19: FAM1-4 (ssDNA)
DNA: B18 DNA with A21G
Take B19: the binding signal in data set [1] was 26.2 RU.
GGGCACGGGTCAGGCGGTTATACGGTGCCCATTGT (ssDNA) [MaptH1.1 N19-53]: in data set [6], the binding result is listed as “binds”.

B20: FAM1-8 (ssDNA)
DNA: GGGTCAATGCCAGGTCTCAATCAGAAGGGTCTGGTGGTTATACGTTCATGTATTGGGTATCGGCTCGCAAGCAGTC
B20 displayed a binding signal in data set [1] of 36 RU.

B21: FAM2-7 (ssDNA)
DNA: GGGTCAATGCCAGGTCTCCCGGTTACCAAGATCGTTGTTCTTGGTGTTAGTGGCATTCATCGGCTCGCAAGCAGTC
As to B21, the binding signal in data set [1] is 22.1 RU.

B22: FAM1-5 (ssDNA)
DNA: GGGTCAATGCCAGGTCTCGCAGAGGTGCGAGGGGCGGTGGGGTCTGGTGGTTATACGCATCGGCTCGCAAGCAGTC
B22: in data set [1], the binding signal came to 21.2 RU.
